Two molecules from US20240392000A1 (BIOGRAPH 55, published 2024) can be followed below.

In general, Kd refers to a measure of binding affinity in units of concentration. A lower Kd goes with a tighter complex.

The assay has as its target CD38 antigen (in solution, Octet analyte) (human, UniProt P28907 43-300, limits assumed). The assay can be described thus: BLI (Octet Red), antibody captured on AHC sensor, antigen in solution, 1:1 model. Background: Biolayer interferometry detects binding as a change in optical thickness at a sensor tip.

Description: Binding experiments were performed on Octet Red at 25° C. The antibodies were loaded onto anti-hIgG Fc Capture (AHC) biosensors for 300 seconds. The ligand-loaded sensors were dipped into a two-fold series dilution (starting at 300 nM) of the antigens (CD19 and CD38) for 240 seconds of CD19 and 150 seconds of CD38 for association followed by dissociation for 600 seconds of CD19 and 130 seconds of CD38. Kinetic constants were calculated using a monovalent (1:1) binding model.

B1: BS1M-4 (BS1 anti-CD38 arm CDR-H2 variant RVIPHLGTAN) (bispecific antibody, human IgG1, kappa)
heavy: not shown
VH: QVQLVQSGAEVKKPGSSVKVSCKASGGTFSSYAFSWVRQAPGQGLEWMGRVIPHLGTANSAQKFQGRVTITADKSTSTAYMELSSLRSEDTAVYYCARDDIAALGPFDYWGQGTLVTVSS
light: not shown
notes: BS1 format
On to B1, for which the dissociation constant (Kd) is 94.4 nM.

B2: BS1M-7 (BS1 anti-CD38 arm CDR-H2 variant RVIPQLGTAN) (bispecific antibody, human IgG1, kappa)
heavy: not shown
VH: QVQLVQSGAEVKKPGSSVKVSCKASGGTFSSYAFSWVRQAPGQGLEWMGRVIPQLGTANSAQKFQGRVTITADKSTSTAYMELSSLRSEDTAVYYCARDDIAALGPFDYWGQGTLVTVSS
light: not shown
notes: BS1 format
As to B2, the Kd stood at 60.5 nM.
